Experiment [1] deals with T1, TRAIL R2, recombinant (format not stated) (human, UniProt O14763 54-182, limits assumed, biotinylated in the ELISAs of paragraph 539 and paragraph 556).
T1 construct: also called biotinylated TRAIL R2; TRAIL R2 biotin
Briefly: capture ELISA; Tn3 captured on anti-His, biotinylated TRAIL R2. The protocol: (§1) A 96-well MaxiSorb plate was coated with Qiagen anti-His antibody at 2 μg/ml overnight. The coated plate was blocked with PBS containing 0.1% v/v Tween-20 and 4% w/v skim milk powder (PBST 4% milk) for 1.5 hours. The coated plate was washed with PBST and diluted bacterial media (diluted 30-fold) containing soluble expressed proteins was added and plates were incubated at room temperature for 2 hours. […] The absorbance was read at 450 nm.
On the technique in general: In an ELISA, binding on a coated surface is turned into a signal by an enzyme label.

Experiment [2] has as its target T2, human TRAIL R2-Fc fusion protein (human, UniProt O14763 54-182, limits assumed, biotinylated in the competition ELISA of Example 3).
T2 construct: also called biotinylated TRAIL R2-Fc; soluble TRAIL R2-Fc; not shown: Fc part
Description: capture ELISA: His-tagged construct captured from E. coli media on anti-His antibody, biotinylated TRAIL R2 (axis: TrailR2-Fc) titrated, streptavidin-HRP/TMB. The protocol:
as §1

Experiment [3] addresses T2, human TRAIL R2-Fc fusion protein. Briefly: competition ELISA: plate coated with F4 mod 1, 0.75 nM human TRAIL R2-Fc, purified monomer as competitor.
Experiment [4] has the same target. Description: competition ELISA: plate coated with F4 mod 1, human TRAIL R2-Fc, monomer as competitor.
Experiment [5] shares this target. Briefly: competition ELISA; F4 mod 1 coated plate, human TRAIL R2-Fc.
Experiment [6] shares this target. Briefly: competition ELISA; plate coated with A9(1C12), 0.75 nM biotinylated TRAIL R2-Fc. The protocol:
Plates were blocked with PBS 0.1% Tween 20+10 mg/ml BSA. […] Absorbance was read at 450 nm.

Experiment [7] addresses T3, Human CD40L, recombinant (E. coli produced) (human, UniProt P29965 113-261, limits assumed, His-tagged (capture ELISA) or biotinylated (AlphaScreen)).
T3 construct: also called HuCD40L; huCD40L
T3 sequence (looked up): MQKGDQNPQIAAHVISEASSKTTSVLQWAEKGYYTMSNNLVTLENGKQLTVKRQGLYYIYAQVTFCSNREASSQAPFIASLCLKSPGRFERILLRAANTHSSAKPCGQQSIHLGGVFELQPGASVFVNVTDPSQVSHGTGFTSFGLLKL
Description: capture ELISA: His-tagged construct captured from E. coli media on anti-His antibody, His-tagged HuCD40L preincubated with biotinylated anti-His antibody titrated, streptavidin-HRP/TMB. The protocol: as §1

For experiment [8], the target named is T4, cynomolgus TRAIL R2-Fc (cynomolgus monkey (Macaca fascicularis)).
T4 construct: the ELISAs used the Fc fusion; also called cyno TRAIL R2-Fc; cyno TRAIL-R2-Fc
Description: competition ELISA; F4 mod 1 coated plate, cyno TRAIL R2-Fc.

For experiment [9], the target named is T4, cynomolgus TRAIL R2-Fc. Briefly: competition ELISA: plate coated with F4 mod 1, cyno TRAIL R2-Fc, monomer as competitor.
The target of experiment [10] is T4, cynomolgus TRAIL R2-Fc. Description: competition ELISA: plate coated with F4 mod 1, 0.75 nM cyno TRAIL R2-Fc, purified monomer as competitor.
For experiment [11], the target named is T5, human TRAIL R2 on the cell surface (H2122, Colo205, Jurkat and other tumor cell lines) (human, UniProt O14763 56-440). Description: cell-based or functional assay.
The target in experiment [12] is T5, human TRAIL R2 on the cell surface …. Briefly: cell-based or functional assay. This is another data set of the same source.
Experiment [13] shares this target. Description: cell-based or functional assay. This is another data set of the same source.

Where two headings read alike, the source gives them in different places. A value given as a limit tells only on which side of the number the result lay.

One may read the IC50 as the concentration needed to halve the response being measured.

B1: 79, monovalent human CD40L-specific Tn3 (designed binder)
chain: IEVKDVTDTTALITWIPPHNADSSIIGCELTYGIKDVPGDRTTIDLYDVAFDYSIGNLKPDTEYEVSLICDTFYGFDSNPAKETFTTGGGTLGHHHHHHHH
notes: 8xHis-tagged, captured from E. coli media; also called 79 (79); clone 79
Take B1: the binding result in experiment [1] is listed as “no binding”; in experiment [2] it was “no binding (tested: 0.2 ug/ml)”.

B2: F4, TRAIL R2-binding Tn3 monomer (designed binder)
chain: AIEVKDVTDTTALITWAKPWVDPPPLWGCELAYGIKDVPGDRTTIDLQQKHTAYSIGNLKPDTEYEVSLICFDPYGLKSRPAKETFTTGGGTLGHHHHHHHH
notes: also called clone F4; original F4
For the molecule B2, the IC50 in [3] and in [4] was 89 nM each time. Also, the “fold difference in binding among F4, F4 mod 1 and F4 mod 12” value (from here on “fold difference in binding among F4”) in experiment [5] is at most 6 fold.

B3: A1 (1E11), monovalent TRAIL R2-specific Tn3 scaffold (designed binder)
chain: AIEVKDVTDTTALITWAKPWVDPPPLWGCELAYGIKDVPGDRTTIDLQQKHTAYSIGNLKPDTEYEVSLICFDPYGAKSNPAKETFTTGGGTLGHHHHHHHH
notes: His-tagged monomer expressed in E. coli; also called 1E11 monomer
On to B3, for which the IC50 in [6] turned out to be 16 nM. In addition, in experiment [7], the binding result is on record as “no binding (tested: 5.00E-02 ug/ml)”.

B4: F4 mod 1, cyno cross reactive TRAIL R2-binding Tn3 monomer (designed binder)
chain: AIEVKDVTDTTALITWAKPWVDPPPLWGCELAYGIKDVPGDRTTIGLQQKHTAYSIGNLKPDTEYEVSLICFDPYGLKSRPAKETFTTGGGTLGHHHHHHHH
notes: F4 with a D to G mutation two amino acids before the DE loop; also called F4 mod 1 monomer
For B4, the “fold difference in binding between F4 mod 1 and F4 mod 12” value in the experiment with cynomolgus TRAIL R2-Fc [8] was at most 2 fold. Moreover, the IC50 was determined as 34 nM with cynomolgus TRAIL R2-Fc [9], 15 nM in [3], 34 nM in the experiment with cynomolgus TRAIL R2-Fc [10] and 15 nM in experiment [4]. The “fold difference in binding among F4” value in experiment [5] is at most 6 fold.

B5: A3 (1E11), tetravalent linear tandem Tn3 (designed binder)
chain: SGGGGSAIEVKDVTDTTALITWAKPWVDPPPLWGCELAYGIKDVPGDRTTIDLQQKHTAYSIGNLKPDTEYEVSLICFDPYGAKSNPAKETFTTGGGGSGGGGSGGGGSAIEVKDVTDTTALITWAKPWVDPPPLWGCELAYGIKDVPGDRTTIDLQQKHTAYSIGNLKPDTEYEVSLICFDPYGAKSNPAKETFTTGGGGSGGGGSGGGGSAIEVKDVTDTTALITWAKPWVDPPPLWGCELAYGIKDVPGDRTTIDLQQKHTAYSIGNLKPDTEYEVSLICFDPYGAKSNPAKETFTTGGGGSGGGGSGGGGSAIEVKDVTDTTALITWAKPWVDPPPLWGCELAYGIKDVPGDRTTIDLQQKHTAYSIGNLKPDTEYEVSLICFDPYGAKSNPAKETFTTGGGGSGGGGSGTLGHHHHHHHH
On to B5, for which the “Maximum Inhibition %, H2122” value in experiment [11] came to 91%. Further, in experiment [6], the IC50 is 0.4 nM, the “fold higher affinity relative to the monomeric A1 protein” value fell in the range of 30 to 40 fold and the “fold lower IC50 than the monomer A1” value was at least 30 fold. For the same molecule, in experiment [12], the “potency in inhibiting H2122 cell viability relative to A9” value is about 150 fold. Further, the “Maximum Inhibition %, H2122” value in experiment [13] turned out to be 91%.

B6: A2 (1E11), bivalent linear tandem Tn3 (designed binder)
chain: SGGGGSAIEVKDVTDTTALITWAKPWVDPPPLWGCELAYGIKDVPGDRTTIDLQQKHTAYSIGNLKPDTEYEVSLICFDPYGAKSNPAKETFTTGGGGSGGGGSGGGGSAIEVKDVTDTTALITWAKPWVDPPPLWGCELAYGIKDVPGDRTTIDLQQKHTAYSIGNLKPDTEYEVSLICFDPYGAKSNPAKETFTTGGGGSGGGGSGTLGHHHHHHHH
Consider B6, for which, in [6], the IC50 came to 0.5 nM, the “fold higher affinity relative to the monomeric A1 protein” value was in the range of 30 to 40 fold and the “fold lower IC50 than the monomer A1” value is at least 30 fold.

B7: F4 mod 12, germline engineered cyno cross reactive TRAIL R2-binding Tn3 monomer (designed binder)
chain: SQIEVKDVTDTTALITWAKPWVDPPPLWGCELTYGIKDVPGDRTTIGLQQKHNQYSIGNLKPDTEYEVSLICFDPYGLKSRPAKETFTTGLGTLGHHHHHHHH
notes: also called F4 mod 12 monomer
On to B7, for which the “fold difference in binding between F4 mod 1 and F4 mod 12” value in the experiment with cynomolgus TRAIL R2-Fc [8] is at most 2 fold. Further, the IC50 with cynomolgus TRAIL R2-Fc [9] was determined as 50 nM; in [4], 22 nM. The “fold difference in binding among F4” value in [5] is at most 6 fold.
